Results on seven sequences are retold here after the Immune Epitope Database (IEDB).

Where only a bound is given, the exact number is not on record here.

One assay addresses HLA-B*15:02. The experiment in a line: IEDB peptide-MHC binding, purified MHC/competitive/fluorescence; filed as Kd, often an IC50 or EC50 that approximates it; ≥ and ≤ were set here for values at or beyond the usual limits of such assays.
Another assay addresses HLA-B*08:01. The experiment in a line: IEDB peptide-MHC binding, purified MHC/direct/fluorescence; filed as Kd, often an IC50 or EC50 that approximates it; ≥ and ≤ were set here for values at or beyond the usual limits of such assays.
Assay [1] concerns the target HLA-A*26:01. Described as above.
In another assay the target is HLA-A*11:01. The assay is described as above.
Assay [2] concerns the target HLA-A*69:01. The description is as above.
Assay [3] addresses HLA-B*15:01. The description is as above.
Another assay has as its target HLA-A*31:01. Described as above.
Assay [4] deals with HLA-A*02:01. Described as above.
Assay [5] deals with HLA-A*03:01. Described as above.
A further assay concerns the target HLA-A*30:01. The description is as above. Conditions: source organism: Brucella melitensis.
For another assay, the target named is HLA-B*58:01. The description is as above.
The next assay has as its target HLA-B*40:01. The assay is described as above.
The next assay addresses HLA-A*01:01. The description is as above.
The target of the next assay is HLA-B*44:02. Described as above.
The target of the next assay is HLA-B*73:01. The assay is described as above.
A further assay addresses HLA-B*07:02. The assay is described as above.
The next assay has as its target HLA-B*27:05. Described as above.
Another assay deals with HLA-B*35:01. The description is as above. Conditions: source organism: Giardia lamblia ATCC 50803.
In the next assay the target is HLA-A*68:02. Described as above. Conditions: source organism: Zaire ebolavirus.
Another assay addresses HLA-A*23:01. Described as above. Conditions: source organism: Zaire ebolavirus.
The next assay has as its target HLA-A*24:03. Described as above. As to conditions: source organism: Zaire ebolavirus.
In the next assay the target is HLA-A*02:03. Described as above. As to conditions: source organism: Zaire ebolavirus.
In another assay the target is HLA-A*29:02. The assay is described as above. Conditions: source organism: Zaire ebolavirus.
Another assay deals with HLA-A*02:16. The assay is described as above. As to conditions: source organism: Zaire ebolavirus.
For a further assay, the target named is HLA-A*02:12. The description is as above. As to conditions: source organism: Zaire ebolavirus.
Another assay addresses HLA-A*02:19. The description is as above. Conditions: source organism: Zaire ebolavirus.
In another assay the target is HLA-A*02:11. The description is as above. Conditions: source organism: Zaire ebolavirus.
In another assay the target is HLA-B*57:01. As to the kind of experiment: IEDB peptide-MHC binding, purified MHC/competitive/fluorescence; filed as Kd, often an IC50 or EC50 that approximates it; ≥ and ≤ were set here for values at or beyond the usual limits of such assays. Conditions: source organism: Zaire ebolavirus.
Assay [6] deals with HLA-A*26:01. Described as above. Conditions: source organism: Zaire ebolavirus.
The target in assay [7] is HLA-A*69:01. The assay is described as above. Conditions: source organism: Zaire ebolavirus.
Assay [8] addresses HLA-B*15:01. Described as above. As to conditions: source organism: Zaire ebolavirus.
The target of assay [9] is HLA-A*02:01. The assay is described as above. As to conditions: source organism: Zaire ebolavirus.
In assay [10] the target is HLA-A*03:01. The description is as above. Conditions: source organism: Zaire ebolavirus.
The target in another assay is HLA-B*39:01. Described as above. As to conditions: source organism: Zaire ebolavirus.
Another assay deals with HLA-B*15:17. Described as above. Conditions: source organism: Zaire ebolavirus.
In another assay the target is HLA-B*51:01. The description is as above. Conditions: source organism: Zaire ebolavirus.
In a further assay the target is HLA-B*27:03. Described as above. As to conditions: source organism: Zaire ebolavirus.
The target in the next assay is HLA-B*18:01. The description is as above. As to conditions: source organism: Zaire ebolavirus.
The next assay addresses HLA-B*46:01. The assay is described as above. Conditions: source organism: Zaire ebolavirus.
[11] abbreviates: source organism: Brucella abortus.
The mark [12] stands for this setting: source organism: Brucella melitensis.
[13] abbreviates: source organism: Giardia lamblia ATCC 50803.

On to WLRAMPPRM, for which the Kd with HLA-B*15:02 (source organism: Vibrio vulnificus YJ016) was no less than 20 µM.
NMQESSKSF: the Kd in the assay with HLA-B*15:02 (source organism: Orientia tsutsugamushi str. Ikeda) was 0.0643 µM.
For the sequence SRIGAWASK, the Kd in the assay with HLA-B*08:01 (setting [11]) was no less than 20 µM; with HLA-A*26:01 [1] (setting [11]) it was no less than 20 µM; in the assay with HLA-A*11:01 (setting [12]) it was 1.22 µM; with HLA-A*69:01 [2] (setting [11]), no less than 20 µM; with HLA-B*15:01 [3] (setting [11]), no less than 20 µM; with HLA-A*31:01 (setting [11]), no less than 20 µM. In addition, the Kd in the assay with HLA-A*02:01 [4] (setting [11]) is no less than 20 µM; in the assay with HLA-A*03:01 [5] (setting [12]) it was 5.83 µM; with HLA-A*30:01 it was 1.27 µM; with HLA-B*58:01 (setting [11]) it was no less than 20 µM; with HLA-B*40:01 (setting [11]) it was no less than 20 µM; with HLA-A*01:01 (setting [11]), no less than 20 µM. Moreover, the Kd was no less than 20 µM with HLA-B*44:02 (setting [11]), no less than 20 µM with HLA-B*73:01 (source organism: Brucella suis 1330), no less than 20 µM with HLA-B*07:02 (setting [11]) and 0.0531 µM in the assay with HLA-B*27:05 (setting [12]).
For the sequence RHIAIQVCY, the Kd in the assay with HLA-B*08:01 (setting [13]) was no less than 20 µM; with HLA-A*26:01 [1] (setting [13]) it was no less than 20 µM; in the assay with HLA-A*11:01 (setting [13]), no less than 20 µM; with HLA-A*69:01 [2] (setting [13]), no less than 20 µM; in the assay with HLA-B*15:01 [3] (setting [13]), 1.73 µM; with HLA-A*31:01 (setting [13]), no less than 20 µM. The Kd with HLA-A*02:01 [4] (setting [13]), with HLA-A*03:01 [5] (setting [13]), in the assay with HLA-B*58:01 (setting [13]), with HLA-B*40:01 (setting [13]), in the assay with HLA-A*01:01 (setting [13]) and in the assay with HLA-B*44:02 (setting [13]) was no less than 20 µM in each case. Besides, the Kd with HLA-B*73:01 (setting [13]) was no less than 20 µM; with HLA-B*07:02 (setting [13]), no less than 20 µM; with HLA-B*35:01, 1.19 µM; with HLA-B*27:05 (setting [13]) it was 3.36 µM.
Regarding SLLHESTLK, the Kd with HLA-A*68:02, with HLA-A*23:01, with HLA-A*24:03, with HLA-A*02:03, with HLA-A*29:02 and in the assay with HLA-A*02:16 was no less than 20 µM each time. Moreover, the Kd in the assay with HLA-A*02:12, in the assay with HLA-A*02:19, in the assay with HLA-A*02:11, in the assay with HLA-B*57:01, with HLA-A*26:01 [6] and with HLA-A*69:01 [7] was no less than 20 µM each time. The Kd with HLA-B*15:01 [8] was no less than 20 µM; with HLA-A*02:01 [9], no less than 20 µM; in the assay with HLA-A*03:01 [10], 0.0241 µM; with HLA-B*39:01, no less than 20 µM; in the assay with HLA-B*15:17, no less than 20 µM; in the assay with HLA-B*51:01, no less than 20 µM. Moreover, the Kd in the assay with HLA-B*27:03, in the assay with HLA-B*18:01 and with HLA-B*46:01 was no less than 20 µM throughout.
For the sequence GRYNLISPK, the Kd in the assay with HLA-A*68:02, with HLA-A*23:01, in the assay with HLA-A*24:03, in the assay with HLA-A*02:03, in the assay with HLA-A*29:02 and with HLA-A*02:16 was no less than 20 µM in each case. Besides, the Kd with HLA-A*02:12 was no less than 20 µM; with HLA-A*02:19, no less than 20 µM; in the assay with HLA-B*27:05 (source organism: Ebola virus - Gabon (1994-1997)), 0.0746 µM; in the assay with HLA-A*02:11, no less than 20 µM; with HLA-B*57:01, no less than 20 µM; with HLA-A*26:01 [6], no less than 20 µM. The Kd with HLA-A*69:01 [7], in the assay with HLA-B*15:01 [8], in the assay with HLA-A*02:01 [9], with HLA-B*39:01, with HLA-B*15:17 and with HLA-B*51:01 was no less than 20 µM throughout. Also, the Kd in the assay with HLA-B*18:01 and with HLA-B*46:01 was no less than 20 µM in each case.
NTFAAWLPM had a Kd with HLA-B*15:02 (setting [13]) of 0.193 µM.

Broadly, the Kd is a measure of binding affinity in units of concentration.
